Experimental data as given in patent US20200131230A1 (published 2020).
Like-named read-outs stand apart in the source and are kept apart here. Positions of bridges follow the written chain, without caps; N, C: chain ends. Non-standard residues stand in square brackets, D forms with d. 2Nal = N[C@@H](Cc1ccc2ccccc2c1)C(=O)O; Phg = N[C@H](C(=O)O)c1ccccc1; Tle = CC(C)(C)[C@H](N)C(=O)O; hCys = N[C@@H](CCS)C(=O)O; Nle = CCCC[C@H](N)C(=O)O; MS = not defined here

B1: Compound 24 (peptide)
peptide: {CH2CO}-[2Nal]ISGRNWVKWVC-NH2
modifications: thioether N-12
SMILES: CC[C@H](C)[C@@H]1NC(=O)[C@H](Cc2ccc3ccccc3c2)NC(=O)CSC[C@@H](C(N)=O)NC(=O)[C@H](C(C)C)NC(=O)[C@H](Cc2c[nH]c3ccccc23)NC(=O)[C@H](CCCCN)NC(=O)[C@H](C(C)C)NC(=O)[C@H](Cc2c[nH]c3ccccc23)NC(=O)[C@H](CC(N)=O)NC(=O)[C@H](CCCNC(=N)N)NC(=O)CNC(=O)[C@H](CO)NC1=O
B2: Compound 41 (peptide)
peptide: {CH2CO}-[2Nal]ISGRNWVHWVC-NH2
modifications: thioether N-12
SMILES: CC[C@H](C)[C@@H]1NC(=O)[C@H](Cc2ccc3ccccc3c2)NC(=O)CSC[C@@H](C(N)=O)NC(=O)[C@H](C(C)C)NC(=O)[C@H](Cc2c[nH]c3ccccc23)NC(=O)[C@H](Cc2c[nH]cn2)NC(=O)[C@H](C(C)C)NC(=O)[C@H](Cc2c[nH]c3ccccc23)NC(=O)[C@H](CC(N)=O)NC(=O)[C@H](CCCNC(=N)N)NC(=O)CNC(=O)[C@H](CO)NC1=O
B3: Compound 42 (peptide)
peptide: {CH2CO}-[2Nal]ISGHNWVKWVC-NH2
modifications: thioether N-12
SMILES: CC[C@H](C)[C@@H]1NC(=O)[C@H](Cc2ccc3ccccc3c2)NC(=O)CSC[C@@H](C(N)=O)NC(=O)[C@H](C(C)C)NC(=O)[C@H](Cc2c[nH]c3ccccc23)NC(=O)[C@H](CCCCN)NC(=O)[C@H](C(C)C)NC(=O)[C@H](Cc2c[nH]c3ccccc23)NC(=O)[C@H](CC(N)=O)NC(=O)[C@H](Cc2c[nH]cn2)NC(=O)CNC(=O)[C@H](CO)NC1=O
B4: Compound 43 (peptide)
peptide: {CH2CO}-[2Nal]ISGKNWVKWVC-NH2
modifications: thioether N-12
SMILES: CC[C@H](C)[C@@H]1NC(=O)[C@H](Cc2ccc3ccccc3c2)NC(=O)CSC[C@@H](C(N)=O)NC(=O)[C@H](C(C)C)NC(=O)[C@H](Cc2c[nH]c3ccccc23)NC(=O)[C@H](CCCCN)NC(=O)[C@H](C(C)C)NC(=O)[C@H](Cc2c[nH]c3ccccc23)NC(=O)[C@H](CC(N)=O)NC(=O)[C@H](CCCCN)NC(=O)CNC(=O)[C@H](CO)NC1=O
B5: Compound 44 (peptide)
peptide: {CH2CO}-[2Nal]ISGSNWVKWVC-NH2
modifications: thioether N-12
SMILES: CC[C@H](C)[C@@H]1NC(=O)[C@H](Cc2ccc3ccccc3c2)NC(=O)CSC[C@@H](C(N)=O)NC(=O)[C@H](C(C)C)NC(=O)[C@H](Cc2c[nH]c3ccccc23)NC(=O)[C@H](CCCCN)NC(=O)[C@H](C(C)C)NC(=O)[C@H](Cc2c[nH]c3ccccc23)NC(=O)[C@H](CC(N)=O)NC(=O)[C@H](CO)NC(=O)CNC(=O)[C@H](CO)NC1=O
B6: Compound 28 (peptide)
peptide: {CH2CO}-[2Nal]ISGRN[2Nal]VKWVC-NH2
modifications: thioether N-12
SMILES: CC[C@H](C)[C@@H]1NC(=O)[C@H](Cc2ccc3ccccc3c2)NC(=O)CSC[C@@H](C(N)=O)NC(=O)[C@H](C(C)C)NC(=O)[C@H](Cc2c[nH]c3ccccc23)NC(=O)[C@H](CCCCN)NC(=O)[C@H](C(C)C)NC(=O)[C@H](Cc2ccc3ccccc3c2)NC(=O)[C@H](CC(N)=O)NC(=O)[C@H](CCCNC(=N)N)NC(=O)CNC(=O)[C@H](CO)NC1=O
B7: Compound 51 (peptide)
peptide: {CH2CO}-[2Nal]ISGRNW[Phg]KWVC-NH2
modifications: thioether N-12
SMILES: CC[C@H](C)[C@@H]1NC(=O)[C@H](Cc2ccc3ccccc3c2)NC(=O)CSC[C@@H](C(N)=O)NC(=O)[C@H](C(C)C)NC(=O)[C@H](Cc2c[nH]c3ccccc23)NC(=O)[C@H](CCCCN)NC(=O)[C@H](c2ccccc2)NC(=O)[C@H](Cc2c[nH]c3ccccc23)NC(=O)[C@H](CC(N)=O)NC(=O)[C@H](CCCNC(=N)N)NC(=O)CNC(=O)[C@H](CO)NC1=O
B8: Compound 52 (peptide)
peptide: {CH2CO}-[2Nal]ISGRNWVKW[Phg]C-NH2
modifications: thioether N-12
SMILES: CC[C@H](C)[C@@H]1NC(=O)[C@H](Cc2ccc3ccccc3c2)NC(=O)CSC[C@@H](C(N)=O)NC(=O)[C@H](c2ccccc2)NC(=O)[C@H](Cc2c[nH]c3ccccc23)NC(=O)[C@H](CCCCN)NC(=O)[C@H](C(C)C)NC(=O)[C@H](Cc2c[nH]c3ccccc23)NC(=O)[C@H](CC(N)=O)NC(=O)[C@H](CCCNC(=N)N)NC(=O)CNC(=O)[C@H](CO)NC1=O
B9: Compound 53 (peptide)
peptide: {CH2CO}-[2Nal]ISGRNWVKW[Tle]C-NH2
modifications: thioether N-12
SMILES: CC[C@H](C)[C@@H]1NC(=O)[C@H](Cc2ccc3ccccc3c2)NC(=O)CSC[C@@H](C(N)=O)NC(=O)[C@H](C(C)(C)C)NC(=O)[C@H](Cc2c[nH]c3ccccc23)NC(=O)[C@H](CCCCN)NC(=O)[C@H](C(C)C)NC(=O)[C@H](Cc2c[nH]c3ccccc23)NC(=O)[C@H](CC(N)=O)NC(=O)[C@H](CCCNC(=N)N)NC(=O)CNC(=O)[C@H](CO)NC1=O
B10: Compound 54 (peptide)
peptide: {CH2CO}-[2Nal]ISGRNWVKWV[hCys]-NH2
modifications: thioether N-12
SMILES: CC[C@H](C)[C@@H]1NC(=O)[C@H](Cc2ccc3ccccc3c2)NC(=O)CSCC[C@@H](C(N)=O)NC(=O)[C@H](C(C)C)NC(=O)[C@H](Cc2c[nH]c3ccccc23)NC(=O)[C@H](CCCCN)NC(=O)[C@H](C(C)C)NC(=O)[C@H](Cc2c[nH]c3ccccc23)NC(=O)[C@H](CC(N)=O)NC(=O)[C@H](CCCNC(=N)N)NC(=O)CNC(=O)[C@H](CO)NC1=O
B11: Compound 56 (peptide)
peptide: {CH2CO}-[2Nal]ISGKN[2Nal]VKWVC-NH2
modifications: thioether N-12
SMILES: CC[C@H](C)[C@@H]1NC(=O)[C@H](Cc2ccc3ccccc3c2)NC(=O)CSC[C@@H](C(N)=O)NC(=O)[C@H](C(C)C)NC(=O)[C@H](Cc2c[nH]c3ccccc23)NC(=O)[C@H](CCCCN)NC(=O)[C@H](C(C)C)NC(=O)[C@H](Cc2ccc3ccccc3c2)NC(=O)[C@H](CC(N)=O)NC(=O)[C@H](CCCCN)NC(=O)CNC(=O)[C@H](CO)NC1=O
B12: Compound 57 (peptide)
peptide: {CH2CO}-[2Nal]ISGKDW[Nle]KWVC-NH2
modifications: thioether N-12
SMILES: CCCC[C@@H]1NC(=O)[C@H](Cc2c[nH]c3ccccc23)NC(=O)[C@H](CC(=O)O)NC(=O)[C@H](CCCCN)NC(=O)CNC(=O)[C@H](CO)NC(=O)[C@H]([C@@H](C)CC)NC(=O)[C@H](Cc2ccc3ccccc3c2)NC(=O)CSC[C@@H](C(N)=O)NC(=O)[C@H](C(C)C)NC(=O)[C@H](Cc2c[nH]c3ccccc23)NC(=O)[C@H](CCCCN)NC1=O
B13: Compound 59 (peptide)
peptide: {CH2CO}-[2Nal]ISGHNW[Nle]KWVC-NH2
modifications: thioether N-12
SMILES: CCCC[C@@H]1NC(=O)[C@H](Cc2c[nH]c3ccccc23)NC(=O)[C@H](CC(N)=O)NC(=O)[C@H](Cc2c[nH]cn2)NC(=O)CNC(=O)[C@H](CO)NC(=O)[C@H]([C@@H](C)CC)NC(=O)[C@H](Cc2ccc3ccccc3c2)NC(=O)CSC[C@@H](C(N)=O)NC(=O)[C@H](C(C)C)NC(=O)[C@H](Cc2c[nH]c3ccccc23)NC(=O)[C@H](CCCCN)NC1=O
B14: Compound 65 (peptide)
peptide: {CH2CO}-FISGRNWVTWVC-NH2
modifications: thioether N-12
SMILES: CC[C@H](C)[C@@H]1NC(=O)[C@H](Cc2ccccc2)NC(=O)CSC[C@@H](C(N)=O)NC(=O)[C@H](C(C)C)NC(=O)[C@H](Cc2c[nH]c3ccccc23)NC(=O)[C@H]([C@@H](C)O)NC(=O)[C@H](C(C)C)NC(=O)[C@H](Cc2c[nH]c3ccccc23)NC(=O)[C@H](CC(N)=O)NC(=O)[C@H](CCCNC(=N)N)NC(=O)CNC(=O)[C@H](CO)NC1=O
B15: Compound 66 (peptide)
peptide: {CH2CO}-FISGKNWVSWVC-NH2
modifications: thioether N-12
SMILES: CC[C@H](C)[C@@H]1NC(=O)[C@H](Cc2ccccc2)NC(=O)CSC[C@@H](C(N)=O)NC(=O)[C@H](C(C)C)NC(=O)[C@H](Cc2c[nH]c3ccccc23)NC(=O)[C@H](CO)NC(=O)[C@H](C(C)C)NC(=O)[C@H](Cc2c[nH]c3ccccc23)NC(=O)[C@H](CC(N)=O)NC(=O)[C@H](CCCCN)NC(=O)CNC(=O)[C@H](CO)NC1=O

What was measured:
Recombinant-hTSP1 = Recombinant-hTSP1 (human, UniProt P07996 19-1170, limits assumed); assay: SPR (Biacore T200), single-cycle kinetics, recombinant hTSP1 immobilised on NTA chip
Experimental: First, 500 μM NiCl₂ was injected over an NTA-Chip (produced by GE Healthcare, BR100532) at a flow rate of 5 μL/min. for 1 minute to thereby activate NTA groups. Then, an EDC/NHS mixture was injected at a flow rate of 10 μL/min. for 7 minutes to thereby activate the carboxyl groups of dextran. Recombinant-hTSP1 was injected at a flow rate of 10 μL/min. for 7 minutes to immobilize the TSP1 on the substrate surfaces with activated NTA and carboxyl groups. Ethanolamine was injected at a flow rate of 10 μL/min. for 7 minutes to thereby deactivate unreacted, activated carboxyl groups.
Since Biacore T200 is highly responsive to change in DMSO concentrations, DMSO solutions were sequentially injected at concentrations of 4%, 4.4%, 4.8%, 5.2%, 5.6%, and 6% to correct for DMSO effects.
The analysis was conducted using the evaluation software provided with Biacore T100 and T200. A DMSO correction curve obtained by solvent correction measurements was applied for the analysis. Kinetics fitting was done on the difference data obtained by subtracting the baseline data from sample measurement data.

[1] = biological target: T1, Thrombospondin human platelet (Calbiochem, 605225) (human, UniProt P07996 19-1170); assay: cell-based or functional assay
[2] = biological target: T1, Thrombospondin human platelet …; assay: cell-based or functional assay; remark: listed apart in the source
[3] = biological target: T1, Thrombospondin human platelet …; assay: cell-based or functional assay; remark: listed apart in the source

T1 sequence (P07996 19-1170 limits assumed): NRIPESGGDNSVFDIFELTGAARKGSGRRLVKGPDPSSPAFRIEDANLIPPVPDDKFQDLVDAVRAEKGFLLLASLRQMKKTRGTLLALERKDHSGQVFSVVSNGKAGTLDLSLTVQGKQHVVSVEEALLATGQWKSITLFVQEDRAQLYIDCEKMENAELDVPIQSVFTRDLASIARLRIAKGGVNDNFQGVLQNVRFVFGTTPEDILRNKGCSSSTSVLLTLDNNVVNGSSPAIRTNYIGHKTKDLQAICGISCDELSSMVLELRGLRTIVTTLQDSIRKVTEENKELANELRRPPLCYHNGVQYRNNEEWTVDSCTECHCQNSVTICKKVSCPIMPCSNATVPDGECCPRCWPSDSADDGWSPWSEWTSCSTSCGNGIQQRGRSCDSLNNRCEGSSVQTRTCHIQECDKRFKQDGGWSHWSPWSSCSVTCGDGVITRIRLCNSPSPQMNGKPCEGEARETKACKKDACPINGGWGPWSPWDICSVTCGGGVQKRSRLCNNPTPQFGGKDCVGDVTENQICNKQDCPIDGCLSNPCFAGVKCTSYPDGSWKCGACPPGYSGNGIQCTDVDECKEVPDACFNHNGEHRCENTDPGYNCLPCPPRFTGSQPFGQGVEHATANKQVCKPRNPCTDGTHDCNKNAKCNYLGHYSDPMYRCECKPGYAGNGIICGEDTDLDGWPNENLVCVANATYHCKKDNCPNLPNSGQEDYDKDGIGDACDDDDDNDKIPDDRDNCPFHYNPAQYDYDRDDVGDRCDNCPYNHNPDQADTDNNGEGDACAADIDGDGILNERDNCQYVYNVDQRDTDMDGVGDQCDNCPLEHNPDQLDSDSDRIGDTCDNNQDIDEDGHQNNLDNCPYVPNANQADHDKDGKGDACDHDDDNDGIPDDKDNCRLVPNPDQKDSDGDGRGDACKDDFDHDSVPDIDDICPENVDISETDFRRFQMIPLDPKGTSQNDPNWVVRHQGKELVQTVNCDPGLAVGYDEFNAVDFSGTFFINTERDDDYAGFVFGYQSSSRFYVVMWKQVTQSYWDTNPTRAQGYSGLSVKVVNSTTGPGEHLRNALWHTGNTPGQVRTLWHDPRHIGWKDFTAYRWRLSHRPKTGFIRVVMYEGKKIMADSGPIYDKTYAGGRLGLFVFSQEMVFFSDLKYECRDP
Sequence of Recombinant-hTSP1 (P07996 19-1170 limits assumed): as above

Binder | Kd (Recombinant-hTSP1) [nM] | Cell adhesion IC50 [2] [nM] | Cell adhesion IC50 [3] [nM] | other results
B1 | 0.12 |  |  | Cell adhesion IC50 [1]: 6.1 nM
B2 | 0.37 | 16.4 |  | 
B3 | 0.44 | 32 |  | 
B4 | 0.13 | 9.2 |  | 
B5 | 0.58 | 30.3 |  | 
B6 | 0.55 | 29.4 |  | 
B7 |  |  | 16 | 
B8 |  |  | 10.3 | 
B9 |  |  | 15.9 | 
B10 |  |  | 19.5 | 
B11 |  |  | 13.2 | 
B12 |  |  | 15.6 | 
B13 |  |  | 20.7 | 
B14 |  |  | 30.6 | 
B15 |  |  | 33.8 | 
{CH2CO}-[2Nal]ISG[MS]DW[Nle]KWVC-NH2 (thioether N-12; reading uncertain) [Compound 67] |  |  | 12.7 | 
